{
  "source": "IntAct's records for PubMed 10659709",
  "parents": {"B1": {"name": "Regulatory protein NPR1 (Arabidopsis thaliana (Mouse-ear cress)), P93002 (parent)", "chain": "MDTTIDGFADSYEISSTSFVATDNTDSSIVYLAAEQVLTGPDVSALQLLSNSFESVFDSPDDFYSDAKLVLSDGREVSFHRCVLSARSSFFKSALAAAKKEKDSNNTAAVKLELKEIAKDYEVGFDSVVTVLAYVYSSRVRPPPKGVSECADENCCHVACRPAVDFMLEVLYLAFIFKIPELITLYQRHLLDVVDKVVIEDTLVILKLANICGKACMKLLDRCKEIIVKSNVDMVSLEKSLPEELVKEIIDRRKELGLEVPKVKKHVSNVHKALDSDDIELVKLLLKEDHTNLDDACALHFAVAYCNVKTATDLLKLDLADVNHRNPRGYTVLHVAAMRKEPQLILSLLEKGASASEATLEGRTALMIAKQATMAVECNNIPEQCKHSLKGRLCVEILEQEDKREQIPRDVPPSFAVAADELKMTLLDLENRVALAQRLFPTEAQAAMEIAEMKGTCEFIVTSLEPDRLTGTKRTSPGVKIAPFRILEEHQSRLKALSKTVELGKRFFPRCSAVLDQIMNCEDLTQLACGEDDTAEKRLQKKQRYMEIQETLKKAFSEDNLELGNSSLTDSTSSTSKSTGGKRSNRKLSHRRR", "partner": "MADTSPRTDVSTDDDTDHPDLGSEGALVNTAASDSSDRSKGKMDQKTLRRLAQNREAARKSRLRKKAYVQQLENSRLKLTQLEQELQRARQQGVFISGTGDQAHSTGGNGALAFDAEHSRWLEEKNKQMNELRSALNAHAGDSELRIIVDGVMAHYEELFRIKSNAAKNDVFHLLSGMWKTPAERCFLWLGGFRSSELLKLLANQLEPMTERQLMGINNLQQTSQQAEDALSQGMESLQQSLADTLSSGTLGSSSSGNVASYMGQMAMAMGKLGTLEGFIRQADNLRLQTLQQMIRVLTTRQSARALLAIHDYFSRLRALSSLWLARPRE"}, "B2": {"name": "Regulatory protein NPR1 (Arabidopsis thaliana (Mouse-ear cress)), P93002 (parent)", "chain": "B1 chain", "partner": "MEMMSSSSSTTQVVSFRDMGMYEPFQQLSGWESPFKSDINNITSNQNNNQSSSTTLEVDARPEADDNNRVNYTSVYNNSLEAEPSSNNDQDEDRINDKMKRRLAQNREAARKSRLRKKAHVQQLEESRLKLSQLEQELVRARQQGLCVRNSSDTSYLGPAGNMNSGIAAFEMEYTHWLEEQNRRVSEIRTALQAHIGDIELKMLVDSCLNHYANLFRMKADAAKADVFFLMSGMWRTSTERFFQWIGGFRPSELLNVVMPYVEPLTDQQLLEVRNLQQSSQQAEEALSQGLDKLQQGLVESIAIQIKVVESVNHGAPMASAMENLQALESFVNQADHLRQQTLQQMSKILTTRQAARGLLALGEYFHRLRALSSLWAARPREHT"}},
  "data": [
    {"variants_of": "B1", "settings": "with tga2_arath TGA2, P43273", "values": [
      {"variant": "C150Y", "effect of a mutation on the interaction": "disrupting interaction"},
      {"variant": "H300Y", "effect of a mutation on the interaction": "disrupting interaction"},
      {"variant": "H334Y", "effect of a mutation on the interaction": "disrupting interaction"},
      {"variant": "P342S", "effect of a mutation on the interaction": "disrupting interaction"}
    ]},
    {"variants_of": "B2", "settings": "with tga3_arath TGA3, Q39234", "values": [
      {"variant": "H300Y", "effect of a mutation on the interaction": "decreasing interaction strength"},
      {"variant": "C150Y", "effect of a mutation on the interaction": "decreasing interaction strength"},
      {"variant": "P342S", "effect of a mutation on the interaction": "decreasing interaction strength"},
      {"variant": "H334Y", "effect of a mutation on the interaction": "decreasing interaction strength"}
    ]}
  ]
}
